This is an account of results in article PMC11079029, “Intramolecular autoinhibition regulates the selectivity of PRPF40A tandem WW domains for proline-rich motifs” (Nature Communications, 2024).

For this experiment, the system named is GFP-tagged PRPF40A-Nter-MUT. Briefly: SILAC GFP-immunoprecipitation with quantitative mass spectrometry, mutant construct. The experiment is classed as binding, human (Hela cells). The following applies: quantitative MS, Hela cells, protein by gene name. As to the method: The PRPF40A N-terminal region (isoform 2, residues 1-221) was PCR-amplified from RPE1 cDNA (ATCC, Cat# CRL-4000) cDNA. The sequence was amplified in two fragments and both fragments were combined by overhang. All PCRs were carried out using Q5 Polymerase (NEB) according to manufacturer’s protocol. The resulting PRPF40A N-terminal region was cloned into a GFP-expressing pcDNA5 vector (see pcDNA5 GFP vector in ref. [28]) using Q5 Site-Directed Mutagenesis Kit (NEB). Nter-MUT, containing the PPVP/PALPP motifs changed to AAAA/AAAAA, was obtained by mutating the N-ter-WW12-containing plasmid with Q5 site-directed mutagenesis. Plasmids were transformed into DH5alpha chemically competent cells. After culturing, DNA isolation was performed with either ZymoPURE Plasmid Miniprep Kit (Zymo Research) or QIAGEN Plasmid Plus Midi Kit (Qiagen). The sequence was confirmed by Sanger Sequencing (GATC Eurofins). All used oligonucleotides are shown in Supplementary Table 6.
Hela cells (ATCC, Cat# CCL-2, RRID:CVCL_0030) were cultured in DMEM SILAC medium (Thermo Fisher) supplemented with 10% filtered FBS (Sigma-Aldrich) and 1% penicillin-streptomycin (Thermo-Fisher). The SILAC medium contains either light (Arg0, Lys0), medium (Arg6, Lys4) or heavy (Arg10, Lys8) isotopes (Cambridge Isotopes Laboratories). Hela cells were cultivated for 14 days in SILAC medium to assure sufficient isotope incorporation. For transfection, 7 × 10^6 Hela cells were seeded in a 15 cm culture dish in 20 ml of respective SILAC medium and grown for 24 h. The cells were then transfected with 20 µg of plasmids expressing either GFP (Control), GFP-tagged N-ext-WW12 or GFP-tagged-N-ext-WW12-MUT utilizing 64 µl FuGENE (Promega) (ratio 1:3.2), according to manufacturer’s protocol.
24 h post-transfection, cells were washed twice in ice-cold PBS and harvested in 1 ml mRIPA buffer (50 mM Tris, 150 mM NaCl, 1 mM EDTA, 1% NP-40, 0.1% Na-deoxycholate), supplemented with 2 µl Turbo-DNase (Thermo Fisher) and 3 µl protease-inhibitor cocktail cOmplete (Sigma-Aldrich). Cell lysates were cleared by centrifugation at 16,000 × g, 4 °C, 15 min and concentration was measured using Pierce BCA Protein Assay kit (Thermo Scientific). The expressed constructs were pulled down by incubating 2.5 mg of lysate with 20 μl GFP-nanobody agarose beads (ChromoTek, GTA-20) for 1 h at 4 °C under constant agitation. Subsequently, beads were washed three times with mRIPA buffer without supplements, then eluted in 1X NuPAGE LDS sample buffer (Thermo Scientific). To detach the proteins from the beads, the eluate was heated to 70 °C for 10 min To evaluate the success of the immunoprecipitation, input (1%) and IP samples were analyzed on a NuPAGE 4–12% Bis-Tris-Acrylamide gel (Thermo Fisher) using NuPAGE MOPS SDS running buffer (Thermo Fisher). Proteins were stained using Sypro Ruby protein gel stain (Thermo Fisher) according to manufacturer’s protocol.
The eluted proteins of three SILAC states (light, medium, heavy) were combined. The proteins were then reduced in DTT, alkylated in iodoacetamide, and purified using the SP3 paramagnetic bead approach. This was followed by overnight enzymatic digestion using trypsin (1 µg per sample) in 50 mM ammonium bicarbonate at 37 °C. The peptide solution was then purified by solid phase extraction in C18 StageTips[99].
Peptides were separated by online reverse phase liquid chromatography using the EASY-nLC 1000 system (Thermo Scientific) in a 30-cm analytical column (inner diameter: 75 μm; heated at 50 °C) packed in-house with ReproSil-Pur 120 C18-AQ 1.9-μm beads (Dr. Maisch GmbH). The gradient separation was performed through a 105-min non-linear gradient of 1.6–32% acetonitrile with 0.1% formic acid at a nanoflow rate of 225 nl/min. The eluted peptides were sprayed directly by electrospray ionization into a Q Exactive Plus Orbitrap mass spectrometer (Thermo Scientific). […]

B1: SF3A3 (protein, UniProt Q12874 1-501, looked up)
Splicing factor 3A subunit 3: METILEQQRRYHEEKERLMDVMAKEMLTKKSTLRDQINSDHRTRAMQDRYMEVSGNLRDLYDDKDGLRKEELNAISGPNEFAEFYNRLKQIKEFHRKHPNEICVPMSVEFEELLKARENPSEEAQNLVEFTDEEGYGRYLDLHDCYLKYINLKASEKLDYITYLSIFDQLFDIPKERKNAEYKRYLEMLLEYLQDYTDRVKPLQDQNELFGKIQAEFEKKWENGTFPGWPKETSSALTHAGAHLDLSAFSSWEELASLGLDRLKSALLALGLKCGGTLEERAQRLFSTKGKSLESLDTSLFAKNPKSKGTKRDTERNKDIAFLEAQIYEYVEILGEQRHLTHENVQRKQARTGEEREEEEEEQISESESEDEENEIIYNPKNLPLGWDGKPIPYWLYKLHGLNINYNCEICGNYTYRGPKAFQRHFAEWRHAHGMRCLGIPNTAHFANVTQIEDAVSLWAKLKLQKASERWQPDTEEEYEDSSGNVVNKKTYEDLKRQGLL
B1: the “Immunoprecipitation enrichment MUT vs WT, log2 FC” value is reported as 1.179.

B2: DIAPH2 (protein, UniProt O60879 1-1101, looked up)
Protein diaphanous homolog 2: MEQPGAAASGAGGGSEEPGGGRSNKRSAGNRAANEEETKNKPKLNIQIKTLADDVRDRITSFRKSTVKKEKPLIQHPIDSQVAMSEFPAAQPLYDERSLNLSEKEVLDLFEKMMEDMNLNEEKKAPLRNKDFTTKREMVVQYISATAKSGGLKNSKHECTLSSQEYVHELRSGISDEKLLNCLESLRVSLTSNPVSWVNNFGHEGLGLLLDELEKLLDKKQQENIDKKNQYKLIQCLKAFMNNKFGLQRILGDERSLLLLARAIDPKQPNMMTEIVKILSAICIVGEENILDKLLGAITTAAERNNRERFSPIVEGLENQEALQLQVACMQFINALVTSPYELDFRIHLRNEFLRSGLKTMLPDLKEKENDELDIQLKVFDENKEDDLTELSHRLNDIRAEMDDMNEVYHLLYNMLKDTAAENYFLSILQHFLLIRNDYYIRPQYYKIIEECVSQIVLHCSGMDPDFKYRQRLDIDLTHLIDSCVNKAKVEESEQKAAEFSKKFDEEFTARQEAQAELQKRDEKIKELEAEIQQLRTQAQVLSSSSGIPGPPAAPPLPGVGPPPPPPAPPLPGGAPLPPPPPPLPGMMGIPPPPPPPLLFGGPPPPPPLGGVPPPPGISLNLPYGMKQKKMYKPEVSMKRINWSKIEPTELSENCFWLRVKEDKFENPDLFAKLALNFATQIKVQKNAEALEEKKTGPTKKKVKELRILDPKTAQNLSIFLGSYRMPYEDIRNVILEVNEDMLSEALIQNLVKHLPEQKILNELAELKNEYDDLCEPEQFGVVMSSVKMLQPRLSSILFKLTFEEHINNIKPSIIAVTLACEELKKSESFNRLLELVLLVGNYMNSGSRNAQSLGFKINFLCKIRDTKSADQKTTLLHFIADICEEKYRDILKFPEELEHVESASKVSAQILKSNLASMEQQIVHLERDIKKFPQAENQHDKFVEKMTSFTKTAREQYEKLSTMHNNMMKLYENLGEYFIFDSKTVSIEEFFGDLNNFRTLFLEAVRENNKRREMEEKTRRAKLAKEKAEQEKLERQKKKKQLIDINKEGDETGVMDNLLEALQSGAAFRDRRKRIPRNPDNRRVPLERSRSRHNGAISSK
Regarding B2, the “Immunoprecipitation enrichment MUT vs WT, log2 FC” value is 1.317.

B3: SF3A1 (protein, UniProt Q15459 2-793, looked up)
Splicing factor 3A subunit 1: PAGPVQAVPPPPPVPTEPKQPTEEEASSKEDSAPSKPVVGIIYPPPEVRNIVDKTASFVARNGPEFEARIRQNEINNPKFNFLNPNDPYHAYYRHKVSEFKEGKAQEPSAAIPKVMQQQQQTTQQQLPQKVQAQVIQETIVPKEPPPEFEFIADPPSISAFDLDVVKLTAQFVARNGRQFLTQLMQKEQRNYQFDFLRPQHSLFNYFTKLVEQYTKILIPPKGLFSKLKKEAENPREVLDQVCYRVEWAKFQERERKKEEEEKEKERVAYAQIDWHDFVVVETVDFQPNEQGNFPPPTTPEELGARILIQERYEKFGESEEVEMEVESDEEDDKQEKAEEPPSQLDQDTQVQDMDEGSDDEEEGQKVPPPPETPMPPPLPPTPDQVIVRKDYDPKASKPLPPAPAPDEYLVSPITGEKIPASKMQEHMRIGLLDPRWLEQRDRSIREKQSDDEVYAPGLDIESSLKQLAERRTDIFGVEETAIGKKIGEEEIQKPEEKVTWDGHSGSMARTQQAAQANITLQEQIEAIHKAKGLVPEDDTKEKIGPSKPNEIPQQPPPPSSATNIPSSAPPITSVPRPPTMPPPVRTTVVSAVPVMPRPPMASVVRLPPGSVIAPMPPIIHAPRINVVPMPPSAPPIMAPRPPPMIVPTAFVPAPPVAPVPAPAPMPPVHPPPPMEDEPTSKKLKTEDSLMPEEEFLRRNKGPVSIKVQVPNMQDKTEWKLNGQVLVFTLPLTDQVSVIKVKIHEATGMPAGKQKLQYEGIFIKDSNSLAYYNMANGAVIHLALKERGGRKK
Turning to B3, the “Immunoprecipitation enrichment MUT vs WT, log2 FC” value turned out to be 1.381.

B4: MTREX (protein, UniProt P42285 2-1042, looked up)
Exosome RNA helicase MTR4: ADAFGDELFSVFEGDSTTAAGTKKDKEKDKGKWKGPPGSADKAGKRFDGKLQSESTNNGKNKRDVDFEGTDEPIFGKKPRIEESITEDLSLADLMPRVKVQSVETVEGCTHEVALPAEEDYLPLKPRVGKAAKEYPFILDAFQREAIQCVDNNQSVLVSAHTSAGKTVCAEYAIALALREKQRVIFTSPIKALSNQKYREMYEEFQDVGLMTGDVTINPTASCLVMTTEILRSMLYRGSEVMREVAWVIFDEIHYMRDSERGVVWEETIILLPDNVHYVFLSATIPNARQFAEWICHLHKQPCHVIYTDYRPTPLQHYIFPAGGDGLHLVVDENGDFREDNFNTAMQVLRDAGDLAKGDQKGRKGGTKGPSNVFKIVKMIMERNFQPVIIFSFSKKDCEAYALQMTKLDFNTDEEKKMVEEVFSNAIDCLSDEDKKLPQVEHVLPLLKRGIGIHHGGLLPILKETIEILFSEGLIKALFATETFAMGINMPARTVLFTNARKFDGKDFRWISSGEYIQMSGRAGRRGMDDRGIVILMVDEKMSPTIGKQLLKGSADPLNSAFHLTYNMVLNLLRVEEINPEYMLEKSFYQFQHYRAIPGVVEKVKNSEEQYNKIVIPNEESVVIYYKIRQQLAKLGKEIEEYIHKPKYCLPFLQPGRLVKVKNEGDDFGWGVVVNFSKKSNVKPNSGELDPLYVVEVLLRCSKESLKNSATEAAKPAKPDEKGEMQVVPVLVHLLSAISSVRLYIPKDLRPVDNRQSVLKSIQEVQKRFPDGIPLLDPIDDMGIQDQGLKKVIQKVEAFEHRMYSHPLHNDPNLETVYTLCEKKAQIAIDIKSAKRELKKARTVLQMDELKCRKRVLRRLGFATSSDVIEMKGRVACEISSADELLLTEMMFNGLFNDLSAEQATALLSCFVFQENSSEMPKLTEQLAGPLRQMQECAKRIAKVSAEAKLEIDEETYLSSFKPHLMDVVYTWATGATFAHICKMTDVFEGSIIRCMRRLEELLRQMCQAAKAIGNTELENKFAEGITKIKRDIVFAASLYL
In the case of B4, the “Immunoprecipitation enrichment MUT vs WT, log2 FC” value is 1.198.

B5: SF3A2 (protein, UniProt Q15428 1-464, looked up)
Splicing factor 3A subunit 2: MDFQHRPGGKTGSGGVASSSESNRDRRERLRQLALETIDINKDPYFMKNHLGSYECKLCLTLHNNEGSYLAHTQGKKHQTNLARRAAKEAKEAPAQPAPEKVKVEVKKFVKIGRPGYKVTKQRDSEMGQQSLLFQIDYPEIAEGIMPRHRFMSAYEQRIEPPDRRWQYLLMAAEPYETIAFKVPSREIDKAEGKFWTHWNRETKQFFLQFHFKMEKPPAPPSLPAGPPGVKRPPPPLMNGLPPRPPLPESLPPPPPGGLPLPPMPPTGPAPSGPPGPPQLPPPAPGVHPPAPVVHPPASGVHPPAPGVHPPAPGVHPPAPGVHPPTSGVHPPAPGVHPPAPGVHPPAPGVHPPAPGVHPPAPGVHPPPSAGVHPQAPGVHPAAPAVHPQAPGVHPPAPGMHPQAPGVHPQPPGVHPSAPGVHPQPPGVHPSNPGVHPPTPMPPMLRPPLPSEGPGNIPPPPPTN
As to B5, the “Immunoprecipitation enrichment MUT vs WT, log2 FC” value amounted to 1.275.
